# Assay results from paper PMC3950950, “Fluorescent sensors for activity and regulation of the nitrate transceptor CHL1/NRT1.1 and oligopeptide transporters” (eLife, 2014).
# B1: NiTrac1 (CHL1/NRT1.1/NPF6.3 fusion) (Arabidopsis thaliana; T101A) (protein)
# chain: MSLPETKSDDILLDAWDFQGRPADRSKTGGWASAAMILCIEAVERLTTLGIGVNLVTYLTGTMHLGNATAANTVTNFLGTSFMLCLLGGFIADTFLGRYLAIAIFAAIQATGVSILTLSTIIPGLRPPRCNPTTSSHCEQASGIQLTVLYLALYLTALGTGGVKASVSGFGSDQFDETEPKERSKMTYFFNRFFFCINVGSLLAVTVLVYVQDDVGRKWGYGICAFAIVLALSVFLAGTNRYRFKKLIGSPMTQVAAVIVAAWRNRKLELPADPSYLYDVDDIIAAEGSMKGKQKLPHTEQFRSLDKAAIRDQEAGVTSNVFNKWTLSTLTDVEEVKQIVRMLPIWATCILFWTVHAQLTTLSVAQSETLDRSIGSFEIPPASMAVFYVGGLLLTTAVYDRVAIRLCKKLFNYPHGLRPLQRIGLGLFFGSMAMAVAALVELKRLRTAHAHGPTVKTLPLGFYLLIPQYLIVGIGEALIYTGQLDFFLRECPKGMKGMSTGLLLSTLALGFFFSSVLVTIVEKFTGKAHPWIADDLNKGRLYNFYWLVAVLVALNFLIFLVFSKWYVYKEKRLAEVGIELDDEPSIPMGH
# notes: full-length ORF between N-terminal Aphrodite t9 (yellow FP) and C-terminal mCerulean (pDRFlip30); expressed in yeast BJ5465; intact cells
# Substrate: O=[N+]([O-])O
# Experiment: fluorescence response (donor quenching) of sensor in yeast, plate reader
# Format: cell-based, Arabidopsis thaliana
# Settings: 50 mM MES pH 5.5, monophasic low-affinity response, excitation 428 nm
protein,measurement,value
B1,Km,3.5 ± 3.7 mM
